Results taken from publication PMC3506619 (PLoS ONE, 2012).

B1: refolded methionine adenosyltransferase II catalytic α2 subunit (human MAT2A) (enzyme)
chain: not shown
notes: human MAT2A ORF from lymphocyte RNA, non-tagged; all cloned ORFs carried A233V and G193S against previously reported cDNAs; Dimer by gel filtration at low concentration, dimer and tetramer at higher concentration; Runs as a double band (α2 and α2′) on SDS-PAGE; The ITC methods say only 'α2 subunit'; also called MAT α2
B2: ΔS16 truncated β subunit of methionine adenosyltransferase II (domain or fragment, human)
chain: GSHSCRLVEEEVNIPNRRVLVTGATGLLGRAVHKEFQQNNWHAVGCGFRRARPKFEQVNLLDSNAVHHIIHDFQPHVIVHCAAERRPDVVENQPDAASQLNVDASGNLAKEAAAVGAFLIYISSDYVFDGTNPPYREEDIPAPLNLYGKTKLDGEKAVLENNLGAAVLRIPILYGEVEKLEESAVTVMFDKVQFSNKSANMDHWQQRFPTHVKDVATVCRQLAEKRMLDPSIKGTFHWSGNEQMTKYEMACAIADAFNLPSSHLRPITDSPVLGAQRPRNAQLDCSKLETLGIGQRTPFRIGIKESLWPFLIDKRWRQTVFH

Key:
[1] = target: the molecule itself; assay: SEC; analytical gel filtration on Superose 12 10/300 GL, refolded α2 at higher protein concentration (200 µg injected), 20 mM Tris/HCl pH 8, 10 mM MgSO4, 150 mM KCl; detection by MAT activity and dot blot
[2] = target: the molecule itself; assay: SEC; analytical gel filtration on Superose 12 10/300 GL, refolded α2 50 µg injected, 20 mM Tris/HCl pH 8, 10 mM MgSO4, 150 mM KCl; detection by MAT activity and dot blot
[3] = target: B1; assay: SEC; equimolar refolded α2 and β (wild type, mutant or truncated) mixed 1 h at 4°C, hetero-oligomer isolated on Biogel A 1.5 m in 50 mM Tris/HCl pH 8, 10 mM MgSO4, 50 mM KCl; peak on SDS-PAGE, densitometric scanning of Coomassie-stained bands; details: both partners purified

Binder | stoichiometry N [1] | stoichiometry N [2] | (α2+α2′)/β subunit ratio [3]
B1 | 4 | 2 | 
B2 |  |  | 2
